Patent publication US20240327471A1, “IL-10 INDUCING POLYPEPTIDES AND USES THEREOF” (ENTEROME S.A., priority 2021, published 2024)

Assays:
monocytes = assay: IL-10 secretion from monocytes, NAT_29 sequence variants, co-stimulated with LPS (AlphaLISA); assay type: cell-based, human; details: 1 μM; LPS 100 ng/ml; 24 h; monocytes from six donors
Description: In order to investigate the impact of different sequence variations of NAT_29, monocytes from six donors were obtained as described in Example 3 and stimulated with 1 μM NAT_29 polypeptide (SEQ ID NO: 1) or a sequence variant thereof containing eight mutations (NAT_38; SEQ ID NO: 9), co-stimulated with 100 ng/ml LPS (NAT_38 comparison) from E. coli O111: B4 (InvivoGen, tlrl-eblps) and placed in humidified CO2 incubator at 5% CO2/37° C. for 24 h. IL-10 secretion was measured at 24 hours by AlphaLISA® on cell supernatants according to the supplier's protocol and read on an Envision plate reader (Perkin Elmer).
For comparison with NAT_29 (SEQ ID NO: 1), a polypeptide differing from the NAT_29 sequence by eight (8) amino acid positions was chosen (NAT_38; SEQ ID NO: 9). Namely, in SEQ ID NO: 9 • (i) 110 of SEQ ID NO: 1 is deleted, • (ii) D13 in SEQ ID NO: 1 is substituted with P (D13P), • (iii) a Q is added between R14 and G15 of SEQ ID NO: 1, • (iv) T16 in SEQ ID NO: 1 is substituted with Y (T16Y), • (v) K17 in SEQ ID NO: 1 is substituted with Q (K17Q), • (vi) S22 in SEQ ID NO: 1 is substituted with G (S22G), • (vii) an I is added between F25 and Y26 of SEQ ID NO: 1, and • (viii) P28 of SEQ ID NO: 1 is deleted.

[1] = test system: CD14 depleted human peripheral blood mononuclear cells (PBMCs); assay: IL-10 screening of microbiota protein library on CD14-depleted PBMCs (AlphaLISA); assay type: cell-based; details: second round of cell-free synthesis, 72 hours
Description: IL-10 screening of the microbiota protein library was performed on CD14 depleted human peripheral blood mononuclear cells (PBMCs). This cellular model was chosen to reduce the background due to cell wall components and other bacterial contaminants possibly present in the lysate of the Cell Free synthesis kit on the synthesised (but not purified) proteins.
PBMCs were isolated from buffy coats as follows: 80 ml PBS were added to 50 ml blood; 4 SepMate™-50 IVD tubes (Stemcell Technologies, Vancouver, Canada) were filled with 15 mL of Ficoll® (Ficoll® Paque Plus; Sigma-Aldrich, St. Louis, USA) per donor, then 30 ml of PBS-diluted blood were gently added. Samples were centrifuged for 20 min at 1200 g at room temperature and washed three times with PBS. To lyse the red blood cells, pellets were resuspended in Red Blood Cells Lysis buffer 1X (Miltenyi Biotec, Bergisch Gladbach, Germany) and incubated for 10 min at room temperature. Cells were then washed with MACS buffer and counted.
PBMC depletion was performed using the CD14 Microbeads kit (Miltenyi Biotec, Bergisch Gladbach, Germany) according to the supplier's protocol. […]
IL-10 secretion was measured by AlphaLISA® (IL10 (human) AlphaLISA Detection Kit; PerkinElmer, Waltham MA, USA) on the undiluted supernatants according to the supplier's protocol. Results were expressed as AlphaLISA® signal (Counts). […]

human PBMCs = assay: Dose-response of purified microbiota proteins, IL-10 secretion from total PBMCs (AlphaLISA); assay type: cell-based; details: 24 hours
Description: Before testing, the proteins were purified. In view thereof, CD14 depletion of PBMCs was not required, since the background induced by the residual contaminants present in the purified proteins is very low. Therefore, the cellular assays of Example 2 to characterize the purified proteins were performed on total PBMCs.
The selected proteins, were tested at concentrations of 0.5, 0.25, 0.1 and 0.025 μM (final concentration) on PBMCs. Cells were seeded in 384 well plates at 72,000 cells/well in a final volume of […] and stimulated with either the purified proteins (10% vol/vol) or the relative controls (positive and negative) for 24 hours in a humidified 5% CO2 atmosphere at 37° C. Samples were tested in duplicate on at least two different PBMCs donors. All the dilutions were made in PBS.
Secretion of IL-10 was measured by AlphaLISA and compared to those of PBS (negative control) and PHA at 10 μg/ml (positive control), essentially as described above.

Row | Molecule | IL-10 secretagogue activity compared with NAT_29 (monocytes) | IL-10 secretion from human PBMCs [1] | IL-10 secretion from PBMCs compared with PHA (positive control) (human PBMCs; 0.5, 0.25, 0.1 and 0.025 μM, PHA at 10 μg/ml) | IL-10 secretion from PBMCs at the lowest dose tested (human PBMCs; lowest dose 0.025 μM)
1 | KKGSRSCFFYLPRQGYQKGSRGCFFIYL (NAT_38) | IL-10 secretagogue activity was maintained | – | – | –
2 | ID3166: microbiota protein, 121 amino acids, 14 kDa, SEQ ID NO: 2 (protein, ID3166) AFLFTSTGVPKKAAEAAFFLYLNKGTKKGSRSCFFIYLDRGTKKGSRSCFFYLPRQGYQKGSRGCFFIYLDRGTKKGSRGCFFIYLDCEKRAGNVCIRKCRGRYLHKKTPRRYRNAEATCS | – | able to stimulate IL-10 secretion from human PBMCs | even more effective | very high effectivity even at the lowest dose tested
